These results are taken from patent US20210087268A1.

The assay deals with T1, TIGIT expressed on cells (TIGIT-expressing effector cell line of the Promega kit; TIGIT-overexpressing NK92 cell line) (UniProt Q495A1).
T1 sequence (looked up): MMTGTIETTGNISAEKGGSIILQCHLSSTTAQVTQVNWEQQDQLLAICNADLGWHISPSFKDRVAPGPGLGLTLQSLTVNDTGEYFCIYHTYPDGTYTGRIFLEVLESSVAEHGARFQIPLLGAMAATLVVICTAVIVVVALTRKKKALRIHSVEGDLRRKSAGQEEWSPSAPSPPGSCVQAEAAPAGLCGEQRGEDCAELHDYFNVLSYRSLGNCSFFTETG
The experiment in a line: cell-based or functional assay.

10A7 antibody, sequence (VH): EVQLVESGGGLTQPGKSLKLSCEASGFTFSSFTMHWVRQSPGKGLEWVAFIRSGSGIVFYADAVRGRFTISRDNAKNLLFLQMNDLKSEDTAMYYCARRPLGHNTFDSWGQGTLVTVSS
10A7 antibody, sequence (VL): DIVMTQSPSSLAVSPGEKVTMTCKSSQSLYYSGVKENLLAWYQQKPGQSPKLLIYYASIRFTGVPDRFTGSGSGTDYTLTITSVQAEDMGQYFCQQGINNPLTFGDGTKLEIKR

10A7 antibody: the binding inhibition (EC50), TIGIT/CD155 blockade assay, luminescence fold response was determined as 752 nM.
